From patent US20210115121A1 (UCB, published 2021)
Residue numbers refer to the chain shown, from its start. Values joined by “and” are separate entries in the source; they are usually repeats but may differ in a detail not shown here. Equal entries are not always repeated. Blank lines part the entries; values can stand above or below the binder they belong to.

Tests used:
[1] = biological target: T1, Tau from human Alzheimer's disease brain (isolated Tau PHF fibrils from Alzheimer's disease patients) (human, UniProt P10636-8 2-441, limits assumed); test: cell-based or functional assay
T1 sequence (P10636 other isoform, or with tags, fused parts or gaps limits assumed): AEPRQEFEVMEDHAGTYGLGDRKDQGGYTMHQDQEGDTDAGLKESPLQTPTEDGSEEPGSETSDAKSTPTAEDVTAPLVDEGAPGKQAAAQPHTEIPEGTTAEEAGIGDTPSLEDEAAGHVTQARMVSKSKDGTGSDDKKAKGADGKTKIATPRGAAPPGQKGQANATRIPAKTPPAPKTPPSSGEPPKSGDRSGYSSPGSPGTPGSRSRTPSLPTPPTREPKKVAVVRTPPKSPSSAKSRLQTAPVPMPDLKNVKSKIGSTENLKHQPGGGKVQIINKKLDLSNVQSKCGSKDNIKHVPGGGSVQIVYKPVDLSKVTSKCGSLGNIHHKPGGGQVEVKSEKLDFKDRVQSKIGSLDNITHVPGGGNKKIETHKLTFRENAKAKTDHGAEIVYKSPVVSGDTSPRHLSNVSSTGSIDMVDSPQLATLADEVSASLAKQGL

[2] = biological target: T2, tau peptide 234-250, N-acetyl-KSPSSAKSRLQTAPVPM-amide (human); test: X-ray crystallography of the Fab/peptide co-complex
T2 peptide: Ac-KSPSSAKSRLQTAPVPM-NH2
Description: We collected the x-ray diffraction data through a single L14H18 Fab/tau peptide 234-250 crystal. The crystal was suspended in a litho loop and flash frozen under liquid nitrogen, after briefly passing through a cryoprotectant solution containing 30% polyethylene glycol 4000, 0.2M calcium chloride, 0.1M HEPES buffer pH 7.5 and 10% ethylene glycol. The diffraction data was collected on a Pilatis 6M at the 104-1 beamline station at the Diamond synchrotron, Didcot, Oxfordshire, UK. The wavelength of the monochromatic x-ray beam was 0.92819A. The reciprocal space was sampled at 0.2° oscillation steps around the φ goniostat axis. The processed data XIA file provided from the synchrotron facility was used for structure determination
For model building the computer program Coot (Emsley P., Lohkamp B., Scott W. G., Cowton K. Acta Crystallography D Biol Crystallography, 2010 April; 66 (Pt 4): 486-501) was used. Refinement was carried out using the program REFMAC (Murshudov G. N., Skubak P., Lebedev A. A., Pannu N. S., Steiner R. A., Nicholls R. A., Winn M. D., Long F., Vagin A. A. Acta Crystallogr D Biol Crystallogr 2011 April; 67 (Pt 4): 355-67).
The interaction between antibody L14H18 and tau peptide, N-acetyl-[…]-amide (based on human tau isoform 2 sequence 234 to 250), was studied by x-ray crystallography using a co-complex prepared from L14H18 Fab fragment incubated with the peptide. […]

[3] = biological target: Tau from human progressive supranuclear palsy brain (human, UniProt P10636-8 2-441, limits assumed); test: cell-based or functional assay
[4] = biological target: Tau from human frontotemporal dementia brain (human, UniProt P10636-8 2-441, limits assumed); test: cell-based or functional assay
[5] = biological target: human Tau P301L from brain of P301L Tau transgenic mice (human, UniProt P10636-8 2-441, limits assumed); test: cell-based or functional assay
Sequence of human Tau P301L from brain of P301L Tau transgenic mice (P10636 other isoform, or with tags, fused parts or gaps P301L P301L P301L P301L limits assumed): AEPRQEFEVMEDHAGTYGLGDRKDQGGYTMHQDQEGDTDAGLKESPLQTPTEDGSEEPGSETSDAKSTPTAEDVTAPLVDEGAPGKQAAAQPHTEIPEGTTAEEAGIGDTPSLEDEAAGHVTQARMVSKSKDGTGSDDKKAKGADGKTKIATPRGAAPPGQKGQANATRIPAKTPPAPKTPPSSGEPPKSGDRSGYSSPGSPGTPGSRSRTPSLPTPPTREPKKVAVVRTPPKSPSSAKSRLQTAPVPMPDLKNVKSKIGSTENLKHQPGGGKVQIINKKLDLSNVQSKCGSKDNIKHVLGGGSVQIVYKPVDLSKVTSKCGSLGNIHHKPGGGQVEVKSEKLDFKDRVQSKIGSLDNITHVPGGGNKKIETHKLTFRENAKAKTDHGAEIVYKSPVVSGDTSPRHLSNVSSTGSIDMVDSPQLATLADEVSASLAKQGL

[6] = biological target: T3, monomeric Tau isoform-2 expressed in E. coli (human, UniProt P10636 2-758); test: SPR, Biacore T200, Tau amine-immobilised, mFab as analyte
T3 construct: also called Ecoli iso-2; E. coli Tau
T3 sequence (P10636 other isoform, or with tags, fused parts or gaps limits assumed): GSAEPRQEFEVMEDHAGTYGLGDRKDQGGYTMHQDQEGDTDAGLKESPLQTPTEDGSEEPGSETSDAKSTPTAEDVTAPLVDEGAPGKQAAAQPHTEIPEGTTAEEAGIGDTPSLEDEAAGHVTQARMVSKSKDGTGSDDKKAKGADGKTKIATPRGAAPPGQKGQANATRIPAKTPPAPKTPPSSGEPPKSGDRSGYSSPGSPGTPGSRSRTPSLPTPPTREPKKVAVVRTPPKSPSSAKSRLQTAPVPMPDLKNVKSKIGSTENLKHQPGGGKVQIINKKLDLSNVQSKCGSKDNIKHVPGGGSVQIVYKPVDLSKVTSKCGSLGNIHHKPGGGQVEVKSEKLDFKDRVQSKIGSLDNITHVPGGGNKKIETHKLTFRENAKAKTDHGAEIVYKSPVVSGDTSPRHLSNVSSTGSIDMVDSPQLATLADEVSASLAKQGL
Protocol: (§1) Absorption at 280 nm was used to determine the concentration of the Fab stock solutions for the BIAcore analysis. An insoluble Tau protein preparation from Alzheimer's disease patients (AD-PHF, fraction 11), the HEK-derived Tau isoform-2 monomers (amino acids 1-441), and the isoform-2 monomers expressed in E. coli were amine immobilized onto the CMS chip, and binding of anti-Tau mFabs was measured with the Biacore T200 instrument. The buffer HBS-EP from GE Healthcare was used for immobilizations apart from the AD-PHF for which 10 mM acetic acid (pH3.0) was used. The HBS-EP+buffer was supplemented with 300 mM NaCl and 1.25% CM-Dextran (Sigma) and used as the assay buffer. While flow cell (Fc) 1 was used as a reference, the following RU values were obtained for Fc2-4: 44 RU with 5 μg/ml E. coli Tau, 56 RU with 5 μg/m HEK Tau, and 500 RU with a 1:20 diluted solution of the AD-PHF material. Two 60 s cycles of 10 mM Glycine (pH1.7) were used for regeneration. Flow rates of 10 μl/min were used for immobilization and regeneration while a 30 μl/min flow rate was used for analyte binding. For AD-PHF, multiple manual injections were applied to reach 500 RU, including EDC/NHS and EtoA capping. Five start-up cycles and 12 cycles per mFab sample or buffer control were applied, using 90 μl analyte injections for either 180 s or 300 s for dissociation. 11 1:3 dilutions of a 600 nM solution plus buffer were used for each mFab. AB1 was analyzed using the BIAcore test.

[7] = biological target: T4, monomeric Tau isoform-2 derived from mammalian HEK293 cells (human, UniProt P10636 2-758); test: as above
T4 construct: also called HEK iso-2; HEK Tau
Protocol: as §1

[8] = biological target: T1, Tau from human Alzheimer's disease …; test: SPR, Biacore T200, AD-PHF fraction 11 amine-immobilised, mFab as analyte
Protocol: as §1

B1: Tau-binding antibody having the light chain of SEQ ID No.: 14 and the heavy chain of SEQ ID No.:17 (antibody, human IgG4 S228P, kappa, V domains shown)
VH: EVQLQESGPGLVKPSETLSLTCTVSGFSLTSNDIAWIRQPPGKGLEWMGTIWTDGSTNYNAAVQSRVTISVDTSKNQFSLKLSSVTAADTAVYYCARHRLYYGAFDYWGQGTMVTVSS
VL: DIVMTQTPLSLSVTPGQPASISCRSSQSLEYSDGYTYLEWYLQKPGQSPQLLIYEVSNRFSGVPDRFSGSGSGTDFTLKISRVEAEDVGVYYCFQATHNPYTFGQGTKLEIKR
IC50 (cellular Tau aggregation assay) [1]: 11 nM | Imax (maximal efficacy at 300 nM, cellular Tau aggregation assay) [1]: 98%

B3: Tau-binding antibody having the light chain of SEQ ID No.: 14 and the heavy chain of SEQ ID No.:18 (antibody, human IgG4 S228P, kappa, V domains shown)
VH: B1 VH with A61T
VL: B1 VL
IC50 (cellular Tau aggregation assay) [1]: 12 nM | Imax (maximal efficacy at 300 nM, cellular Tau aggregation assay) [1]: 98% | IC50 (cellular Tau aggregation assay) [3]: 42 nM | Imax (maximal efficacy at 300 nM, cellular Tau aggregation assay) [3]: 100% | IC50 (cellular Tau aggregation assay) [4]: 1 nM | Imax (maximal efficacy at 300 nM, cellular Tau aggregation assay) [4]: 99%

B5: mFab AB1 having a rat VL of SEQ ID No.: 7 and a rat VH of SEQ ID No.: 8 (Fab, V domains shown)
VH: EVKLEESGPGLMQPSETLSLTCTVSGFSLTSNDIAWVRQPLGKGLVWMGTIWTDGSTNYNSAVQSRLSISRDTSKSQFFLKMNSLQPEDTGTYYCARHRLYYGAFDYWGQGTMVTVS
VL: DIVMTQTPVSLSVTLGDQASISCRSSQSLEYSDGYTYLEWYLQKPGQSPQLLIYEVSNRFSGVPDRFIGSGSGTDFTLKISRVEPEDLGVYYCFQATHNPYTFGAGTKLEIK
notes: also called AB1 Fab; anti-Tau mFab
Kd [6]: 160 nM | koff [6]: 0.011 s⁻¹ | kon [6]: 69000 M⁻¹ s⁻¹ and 73000 M⁻¹ s⁻¹ | Kd [7]: 160 nM and 170 nM | koff [7]: 0.011 s⁻¹ | kon [7]: 70000 M⁻¹ s⁻¹ and 66000 M⁻¹ s⁻¹ | Kd [8]: 190 nM and 180 nM | koff [8]: 0.0096 s⁻¹ and 0.008 s⁻¹ | kon [8]: 52000 M⁻¹ s⁻¹ and 44000 M⁻¹ s⁻¹

Second part, the binder after the results:

binding result [2]: binds
B2: L14H18 Fab (Fab, V domains shown)
VH: B1 VH with A61T
VL: B1 VL
notes: also called L14H18 Fab fragment; L14H18 Fab protein

IC50 (cellular Tau aggregation assay) [1]: 4 nM | Imax (maximal efficacy at 300 nM, cellular Tau aggregation assay) [1]: 98% | IC50 (cellular Tau aggregation assay) [4]: 3 nM | Imax (maximal efficacy at 300 nM, cellular Tau aggregation assay) [4]: 97% | IC50 (cellular Tau aggregation assay) [5]: 30 nM | Imax (maximal efficacy at 300 nM, cellular Tau aggregation assay) [5]: 89%
B4: AB1 having a rat VL of SEQ ID NO: 7 and a rat VH of SEQ ID NO.:8 (antibody, IgG1, V domains shown)
VH: B5 VH
VL: B5 VL
